Measured values taken from patent US9631002B2, “Methods and compositions for producing active vitamin K-dependent proteins” (The University of North Carolina at Chapel Hill, priority 2010, dated 2017).

B1: hVKOR M. tuberculosis: human VKOR with residues 122-139 replaced by M. tuberculosis VKOR 129-146, SEQ ID NO:29 (protein)
chain: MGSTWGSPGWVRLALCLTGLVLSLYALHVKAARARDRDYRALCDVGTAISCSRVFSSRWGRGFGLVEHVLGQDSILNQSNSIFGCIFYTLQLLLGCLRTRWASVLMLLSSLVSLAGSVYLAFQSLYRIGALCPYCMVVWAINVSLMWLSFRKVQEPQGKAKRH
modifications: Human VKOR with amino acids 122-139 substituted with amino acids 129-146 of M. tuberculosis VKOR (RefSeq accession no. NP_217484)
B2: MT-VKORH: Mycobacterium tuberculosis VKOR homologue, NP_217484, SEQ ID NO:18 (protein, listed as Mycobacterium tuberculosis)
chain: MVAARPAERSGDPAAVRVPVPSAWWVLIGGVIGLFASMTLTVEKVRILLDPIYVPSCNVNPIVSCGSVMTTPQASLLGFPNPLLGIAGFTVVVVTGVLAVAKVPLPRWYWIGLAVGILVGVAFVHWLIFQSLYRIGALCPYCMVVWAVIATLLVVVASIVFGPMRENRGSQERVGARLLYQWRWSLATLWFTTVFLLIMVRFWDYSTLI

Key:
[1] = tested on: carboxylation of FIXgla-PC reporter protein in HEK293 cells (reduction of KO to vitamin K); experiment: Cell-based VKOR activity assay: recombinant VKOR/VKORH expressed in FIXgla-PC/HEK293 cells with KO and warfarin, carboxylated reporter by ELISA; design: species or system human
[2] = tested on: carboxylation of FIXgla-PC reporter protein in AV12 cells (reduction of vitamin K to KH2); experiment: Cell-based VKOR activity assay in FIXgla-PC/AV12 or FIXgla-PC/VKOR-Y139F/AV12 cells, carboxylated reporter by ELISA; design: species or system Syrian golden hamster

Molecule | ability of human VKOR with replaced residues 122-139 to use KO to carboxylate the reporter ([1]; 5 μM KO, 2 μM warfarin, 48 h, HEK293 (FIG. 11C)) | ability of human VKOR with replaced residues 122-139 to use vitamin K to carboxylate the reporter ([2]; 11 μM K, 2 μM warfarin, 48 h, FIXgla-PC AV-12 (FIG. 11B)) | activity relative to human VKOR-Y139F ([1]; 5 μM KO, 4 μM warfarin, 48 h, luciferase-normalized (FIG. 15B)) | Relative activity: Human Y139F ([1]; VKOR of the organism compared to human Y139F VKOR, cell-based carboxylation) | activity relative to human VKOR (Y139F) ([1]; both human forms carry Y139F, 5 μM KO, 2 μM warfarin) | support of reporter protein carboxylation ([2]; transient expression in FIXgla-PC/AV12 not stably expressing VKOR-Y139F, KO and warfarin (FIG. 19B)) | activity in reducing vitamin K to KH2 to support carboxylation ([2]; transient expression in FIXgla-PC/VKOR-Y139F/AV12, KO and warfarin (FIG. 19A))
B1 | functions as a VKOR | can utilize vitamin K to produce carboxylated reporter protein |  |  |  |  | 
B2 |  |  | 2.5 fold | Yes, greater | 2 fold | produced significant carboxylated reporter protein | significant activity
